In patent publication US20150344587A1:

How the values were obtained:
CD20 [1] = biological target: CD20 (UniProt P11836); assay: binding to CD20 after 37° C. for 3 days; method not stated
CD20 [2] = biological target: CD20 (UniProt P11836); assay: binding to CD20 after 37° C. for 7 days; method not stated

- loss of binding affinity (CD20 [1]): 10%
- loss of binding affinity (CD20 [2]): 20%
Substance: (Fucα1,6)GlcNAc-Rituximab (antibody)
